Measurements as given in patent US10864269B2, “Therapeutic combinations comprising anti-CD73 antibodies and uses thereof” (MedImmune Limited, priority 2014, dated 2020).

What was measured:
native CD73, 4T1 cells = biological target: T1, native CD73, 4T1 cells (Mus musculus, UniProt Q61503); assay: Flow cytometry binding to native CD73, 4T1 cells; conditions: as measured by flow cytometry; read-out: KD, CD73 on the surface of murine 3T1 cells
T1 construct: native CD73 expressed on human, murine, and cynomolgus monkey cell lines; endogenous in cells; host or cells: 4T1
T1 sequence (Q61503 29-551): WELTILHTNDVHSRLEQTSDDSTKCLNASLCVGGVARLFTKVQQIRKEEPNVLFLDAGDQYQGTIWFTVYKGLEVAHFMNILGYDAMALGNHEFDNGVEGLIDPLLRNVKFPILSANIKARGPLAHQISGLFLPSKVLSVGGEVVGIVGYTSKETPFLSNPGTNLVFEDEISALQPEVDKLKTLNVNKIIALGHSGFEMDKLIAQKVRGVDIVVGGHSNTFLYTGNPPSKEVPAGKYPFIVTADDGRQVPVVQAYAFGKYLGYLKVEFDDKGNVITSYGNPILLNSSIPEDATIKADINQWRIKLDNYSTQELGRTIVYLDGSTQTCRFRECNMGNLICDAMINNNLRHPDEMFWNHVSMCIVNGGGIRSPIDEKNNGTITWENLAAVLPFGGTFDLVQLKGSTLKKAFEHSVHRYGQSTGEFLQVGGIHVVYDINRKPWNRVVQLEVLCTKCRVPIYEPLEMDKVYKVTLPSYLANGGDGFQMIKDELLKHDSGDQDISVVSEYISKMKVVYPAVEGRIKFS
Description: Binding of MEDI9447 to native CD73 expressed on human, murine, and cynomolgus monkey cell lines was characterized by flow cytometry. The cells were incubated with various concentrations of MEDI9447 and antibody binding was monitored with and fluorophore-labeled anti-human Fc antibody. A plot of the median fluorescence intensity as a function of the MEDI9447 concentration was fitted nonlinearly using a one-site binding isotherm model to calculate the equilibrium dissociation constant.
(§1) The affinity of enhanced anti-CD73 antibodies (in IgG1-TM format) to human, murine, and cynomolgus CD73 was determined by flow cytometry and surface plasmon resonsance (SPR) (Table 13). The enhanced antibodies had pM affinity to cellular and recombinant CD73 from the three species.
All flow cytometry experiments were run at 4C and reagents were prepared in PBS/1% FBS buffer. 10,000 cells were incubated with test antibody in 50 uL volume for 4 hours. Cells were washed twice and incubated in 50 uL goat anti-human IgGFc-AlexaFluor647 conjugate for 15 minutes. Cells were washed, resuspended in buffer supplemented with Dapi, and analyzed on a flow cytometer. […] For the determination of KD values, a plot of the median fluorescence intensity as a function of test antibody concentration was fitted nonlinearly using a one site binding isotherm model.

MDA-MB-231 cells = assay: FabZAP antibody internalization assay, MDA-MB-231; type: cell-based, human; conditions: MDA-MB-231, 3 days
Description: Internalization of MEDI9447 into cell lines MDA-MB-231 (human mammary carcinoma) and 4T1 (murine mammary carcinoma) was assessed using a human Antibody Internalization Kit that is sold commercially as the FabZAP assay (Advanced Targeting Systems, San Diego Calif.). Serial dilutions of MEDI9447 or negative control antibody R347 were pre-incubated with 40 nM FabZAP reagent (Fab fragment of a polyclonal anti-human IgG antibody conjugated to the cytotoxic protein saporin) and then added to the cell lines. After 3 days in culture, cell proliferation was measured using a luminescent cell viability assay sold commercially as the CELLTITER-GLO® assay (Promega, Madison Wis.). This assay was used to calculate EC50 values and maximum toxicity. […]
Cell proliferation of MDA-MB-231 cells and 4T1 cells treated with serial dilutions of test antibody and FabZAP reagent was measured by CELLTITER-GLO® assay (FIG. 2). The signal from the negative control antibody R347 in the CELLTITER-GLO® assay was subtracted from the signal of MEDI9447 and the EC50 value and maximum toxicity were calculated by fitting the dose-response curve using non-linear regression analysis.
1,000 cells/well were cultured in 96 well plates in RPMI/10% FBS. […] After 3 days incubation at 37C, the cell proliferation was measured using the CELLTITER-GLO® assay (Promega, Madison Wis.).

Murine CD73 ECD = biological target: T2, Murine CD73 ECD (Mus musculus, UniProt Q61503); assay: Surface plasmon resonance (ProteOn), murine CD73; type: binding; conditions: SPR
T2 construct: made in house; host or cells: mammalian cells
T2 sequence (Q61503 29-551 limits assumed): T1 sequence (Q61503 29-551)
Description: (§2) A ProteOn XPR36 instrument was used to characterize binding of MEDI9447 to human, murine, and cynomolgus CD73 ECD. MEDI9447 was affinity-captured using an anti-human Fc antibody. CD73 ECD was in the mobile phase. The association and dissociation of CD73 to MEDI9447 could be accurately described with the Langmuir 1:1 model.
as §1

Cynomolgus CD73 ECD = assay: Surface plasmon resonance (ProteOn), cynomolgus CD73; type: binding; conditions: SPR
Description: as §2, §1

MEDI9447: IgG1 with CD730010-derived VL of SEQ ID NO: 68 and VH of SEQ ID NO: 82
Kd (native CD73, 4T1 cells): ~0.11 nM
maximum toxicity (MDA-MB-231 cells): 97%
ka (Murine CD73 ECD): 2.41e+06 M⁻¹ s⁻¹
kd (Murine CD73 ECD): 2.32e-06 s⁻¹
ka (Cynomolgus CD73 ECD): 2.71e+06 M⁻¹ s⁻¹
kd (Cynomolgus CD73 ECD): 1.76e-05 s⁻¹
